Test results reported in publication PMC8660799, “Cryo-EM reveals unique structural features of the FhuCDB Escherichia coli ferrichrome importer” (Communications Biology, 2021).
Read-outs that look alike come from different tables or passages of the source. Each block holds one molecule with its values, some of them ahead of it.

Assays:
[1] = biological target: BtuF (Escherichia coli) (UniProt P37028); conditions: cited from earlier work
[2] = biological target: BtuF (Escherichia coli) (UniProt P37028); conditions: cited from earlier work; remark: listed apart in the source
[3] = substrate: Nc1ncnc2c1ncn2[C@@H]1O[C@H](COP(=O)(O)OP(=O)(O)OP(=O)(O)O)[C@@H](O)[C@H]1O; test: ATPase assay in proteoliposomes, malachite green phosphate detection; type: biochemical, Escherichia coli; conditions: MgCl2, 37 °C
[4] = biological target: T1, FhuCB subcomplex (membrane subunit FhuB and cytosolic ATPase FhuC of the ferrichrome importer), wild type (Escherichia coli, UniProt P07821 1-265; P06972 1-660, red-tris-NTA 2nd generation dye on the His-tag (in the MST experiments)); test: MST; 40 nM FhuCB in detergent, His-tag labelled with red-tris-NTA 2nd generation dye; serial dilution of 1.6 μM FhuD with substrate ferrichrome; with ATP; Monolith NT.115pico, 20% LED power, medium MST power; conditions: both partners purified
T1 construct: cloned from the genome with the operon; a thrombin site stands between the His-tag and FhuC; Made from FhuCB-pET15b (FhuD gene deleted from FhuCDB-pET15b); The copy numbers (two FhuC, one FhuB) are told for the FhuCDB structure; In the gel filtration experiment the same chains came from the FhuCDB construct, co-expressed with FhuD; also called Fhu importer; wild-type FhuCB; source: E. coli …
T1 sequence (looked up) 1: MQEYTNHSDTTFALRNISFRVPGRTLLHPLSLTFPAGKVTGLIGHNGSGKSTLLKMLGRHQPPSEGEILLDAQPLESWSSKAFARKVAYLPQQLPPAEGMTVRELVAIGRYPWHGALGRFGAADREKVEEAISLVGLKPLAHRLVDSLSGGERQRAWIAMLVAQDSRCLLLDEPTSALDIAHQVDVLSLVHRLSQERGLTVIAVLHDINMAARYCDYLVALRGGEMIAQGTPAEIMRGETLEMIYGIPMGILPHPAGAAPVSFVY
T1 sequence (looked up) 2: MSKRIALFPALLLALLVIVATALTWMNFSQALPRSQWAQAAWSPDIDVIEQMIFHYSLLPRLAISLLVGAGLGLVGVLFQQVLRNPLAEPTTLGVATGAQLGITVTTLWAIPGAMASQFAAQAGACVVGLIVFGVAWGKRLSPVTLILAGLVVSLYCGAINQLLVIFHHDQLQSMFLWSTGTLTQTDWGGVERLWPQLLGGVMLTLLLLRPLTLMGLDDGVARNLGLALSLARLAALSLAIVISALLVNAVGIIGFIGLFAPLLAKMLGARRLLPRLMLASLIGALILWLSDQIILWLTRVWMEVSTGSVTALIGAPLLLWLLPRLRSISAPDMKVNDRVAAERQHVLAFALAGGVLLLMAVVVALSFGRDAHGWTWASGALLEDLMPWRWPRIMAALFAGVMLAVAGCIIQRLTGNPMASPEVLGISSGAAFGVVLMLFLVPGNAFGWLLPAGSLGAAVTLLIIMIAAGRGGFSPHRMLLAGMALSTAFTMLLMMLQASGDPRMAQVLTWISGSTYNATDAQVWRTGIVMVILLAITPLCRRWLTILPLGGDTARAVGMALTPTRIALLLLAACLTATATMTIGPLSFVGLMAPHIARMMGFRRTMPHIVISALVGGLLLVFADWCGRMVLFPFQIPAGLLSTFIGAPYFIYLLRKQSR

[5] = biological target: T1, FhuCB subcomplex (membrane subunit FhuB …); test: MST; 40 nM FhuCB in detergent, His-tag labelled with red-tris-NTA 2nd generation dye; serial dilution of 1.6 μM FhuD with substrate ferrichrome; without ATP-Mg; Monolith NT.115pico, 20% LED power, medium MST power; conditions: both partners purified

BtuF (Escherichia coli), sequence (P37028 23-266): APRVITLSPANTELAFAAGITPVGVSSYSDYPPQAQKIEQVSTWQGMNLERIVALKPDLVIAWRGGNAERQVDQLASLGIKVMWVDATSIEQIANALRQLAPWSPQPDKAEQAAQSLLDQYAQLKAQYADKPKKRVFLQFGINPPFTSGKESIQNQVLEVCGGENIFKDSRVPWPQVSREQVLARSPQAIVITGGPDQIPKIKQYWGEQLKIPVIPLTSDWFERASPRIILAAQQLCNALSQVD

Molecule: BtuCD (from UniProt P06609)
Kd [1]: 0.00012 nM
Kd [2]: 21.1 nM

B1: FhuCB subcomplex (Escherichia coli K-12) (protein)
chain: T1 sequence (looked up) 1
notes: full-length FhuB and FhuC without FhuD; N-terminal His-tag and thrombin site on FhuC; pET15b, E. coli BL21(DE3) C43; purified in LMNG, reconstituted in E. coli polar lipid proteoliposomes; with Iron(3+)-hydroxamate import system permease protein FhuB
Km ([3]; Michaelis-Menten fit with Hill coefficient (cooperative), no FhuD): 690 ± 80 µM

B2: FhuCB + FhuD (ATPase assay) (Escherichia coli K-12) (protein)
chain: T1 sequence (looked up) 1
notes: FhuCB (N-terminal His-tag and thrombin site on FhuC) in proteoliposomes with purified FhuD enclosed; with Iron(3+)-hydroxamate import system permease protein FhuB
Km ([3]; Michaelis-Menten fit with Hill coefficient, 1 μM FhuD enclosed, no ferrichrome): 740 ± 50 µM

Kd [4]: ~1.03 nM
Kd [5]: ~12.2 nM
B3: FhuD, periplasmic substrate-binding protein, expressed alone (natural protein, Escherichia coli, UniProt P07822 31-296, looked up)
chain: AAIDPNRIVALEWLPVELLLALGIVPYGVADTINYRLWVSEPPLPDSVIDVGLRTEPNLELLTEMKPSFMVWSAGYGPSPEMLARIAPGRGFNFSDGKQPLAMARKSLTEMADLLNLQSAAETHLAQYEDFIRSMKPRFVKRGARPLLLTTLIDPRHMLVFGPNSLFQEILDEYGIPNAWQGETNFWGSTAVSIDRLAAYKDVDVLCFDHDNSKDMDALMATPLWQAMPFVRAGRFQRVPAVWFYGATLSAMHFVRVLDNAIGGKA
notes: the gene was amplified and cloned into pET15b; Used without substrate and loaded with the small molecule ferrichrome (told apart by the assays); also called SBP; ferrichrome-loaded FhuD
